In the DeepSol protein solubility set:

assay: soluble on expression in E. coli; label from the status in PepcDB or PDB records

Soluble on expression in E. coli, not soluble:
MGSDKIHHHHHHMRTSTHAEVLTYSDEQTSVRHLQNSAPLALKHTISPAEIRDNLPAGQGGVGFLFHATDWDTLSFSFHNVKHRNASFEEELWRTKPFIASPIYSGSQIIGANIACPVPLELWLGSPRGIKRFRETQFFPALELARQAGLNMVAMGASTPYACNYGALPRDTRPPHITTGHAATAAMLKDWAMHCCNELDLEFGKSKLALFGAAGRLGTTVAKYALYKDAPRELVLIDLPDKVNLLTEQAKELMASDLLGKTRVSVHTFSPHTPLPDFDGAILASSTSVPYLTAADLRRAQFWIDDSHPRAASVEAELASRGHTLYIECFARGPAGLNTTFPFRLPTTRDCYTCFAEGYSAWQEGIASDFIIGSPPVWSVSYTHSLLKKYGFAVGPFHGKNGSPITLDTQLRGKQELMSS, MGSDKIHHHHHHMRVEEAKYLAKKIMMAGEIPLLVGHFGVGKTDIARDIARETERKLIILVLSQMEPGDLIGLPARTEEKTVFLKPDWWPESGDTILFLDEINRAHRSVRNAIMQLLVDRRIHNHILPEGTWIMAAMNPPEEEYDQADLITDPAFISRFFILEVNPDVSEWLEWAEKNNVSKEVRDFIRDYPEFLFSERSLSLRTSLKPSPRSWYKLSNVLKTLTDDEKEKYGYVIAAGIVGPEAAKAFYDSFFQRVKIPSVESVLFDGKIENLEDIHAANTLVLRIVDFLSKVDVRTLERHLDDVSKNLVRLSEIMPKESFYGVLRFLVDEAQKEGEKSWIFDKILEKMLEREDMRKMVNEL, MGSDKIHHHHHHMRVFIIHLSPKTCQNFSLKETHITPLLESLKLQGISYEIFDAIYSKISPTQLHPLILEHLHPSFMVEDLWAFCKNKKHPPCALKNFFYAIKHCGKRMGFGELGCYASHYSLWQKCIELNEAICILEDDIIIKDRFKESLEFCRHHINELGYIRLMHLEENVAKQKTPVKGVSQILNFKDGIGTQGYVLAPKAAQKLLKYSAKEWVMPIDCVMDRHYWHGVKNYVLEEFAIACDGMNAQNSNTEKQRPKKLPLSIRIGRSLHKSTIKFLDKVFRYSPKLIRIGKH, MGSDKIHHHHHHMSAPTITTLGEFLQAGQAEYKIFDIGRCLTELSQEEFAAIEQQQRPYPYPIARQAQLAILFQHKQHDQQPFIWFLQFPLDERGLLNIAARNQYLEYVVNALGHEITGEMTEEQQKQLQQNPYLLTPNEQQRAALHARVQRQQKLSPSIHFETAEAYLKQPESGIDWQQMGLQGLHDCAARLEQLPELSKAIATHFSHYPSAVRQPLAVALEQQSLTPPVRDALLQNLESSNAQLCTDSLRALASASAHPRVKKAVNKLVPHANADQLVVIAARLWPVLCEEQNLLRYLDAIAELDNSLFDALFQDIIALPDIRPLLLSIIAQQKQSAAVNEALNRLKQQTQGS, MGSDKIHHHHHHMSDASKPDSNEVREIRINPVVPGESVLVATARSMRPKKAEELAPRDTRKHVETCPFCRGNEHKTPPAILTWPDTGDWQIRMVENLYPVLGDDRAQAGFTFGLQQTIDGYGRHEVIIDHSEHGIAVQDMAETHLAALFGVYQTRMRQLFDSDERLKYVLVFKNFGPAAGASIPHTHSQVIAMPVVPENVDAEVRNSATHYAKHHHCIFCALIDEALTFEATIYDRNSGAVRRKINVGQYVVERGEKFIAIKPFASRYEWEVHILPLAHQADFLDVRGEDLADLARVMKRTMARLDAVIGGAQYNFFLHSVPHDAQQATHAPSYHWHLEICPRTSIPTGFELGSGLFVNTINPEEAAERLRSVELPAR, MGSDKIHHHHHHMSDEWIKIFESDFYVREMIKVWDEGEKWANWIDEVVSKYKLEKKVLDIPCGIGRVSYFLANRGYKVTGIDISERMISMARSNIQNGKFIVGDMRKIKEIIGNEKYDLVINIYNSLGYYSEEDDLKILESLRDSTRKIVVINLDNRDYIIYNRPNEYYTYIPPYLVYSKVEFEQETSRLKIYRKYYLNDKEVGEMIYEQRLYSIHEILALLKKAGLQPIEVLSGYSWKKFSIMDPEMTIIATPA, MGSDKIHHHHHHMSDLITLAQLSQGYRYNSDSLILADFILKQGIKGAVFDVGAGCGIIGILLKKNIANLSLSLIDIQKENIELIEKNLKSNKIQGDIFHDDFNQFQIIKKFDFIVCNPPFYRQGAYKSEDQHKAISKFQEFLPLHSFLAKTNSMLKPNGTLYFCYEALALDEICFILKDMKMKITKLCFVHTHQSKKARLVLIQVKKGSKSPCEILPPFFVYENEILSKQMQEIHLRFRLKSYDI, MGSDKIHHHHHHMSDLTVNDGSYQQLLDRIGECLALGQQRSFEQVNSVLVETYWQIGRYIVEFEQAGKERAEYGSKLLQVLSRDLKAAYGKGFSRSNLQYMRLFYLNYENCQTLSGKLSWSHYTELLAISDDLARSFYEQQCIQDRWSVRELKRQKDSALFERVALSKDRAEILALAKDGQRIESARDVVKDPYVFEFLDLPDRNYRESELENRLIAELEKFLLELGKGFAFIGQQYRITLNNTHFFVDLVFYHRILKCFVLIDLKTRAVSHQDIGQMNMYLNYFRAEENMEDDNEPIGIVLARDKDEILVEYAKGGISNQLFVSRYQLYLPDPEVLKQELKRLLSVNDG, MGSDKIHHHHHHMSEEAFDAIIVGAGLAGCVAAYVLAKEGADVLVIERGNYAGSKNMTGGRLYAHSLERIIPGFAKEAPIERKVTKEKVTFLTDDTGVTLDYHNGRDQSPLQESYTLLRGEFDQWLMGKAEEVGAQFITGIRVDEILTQDGKVIGVKADGDELTAKAVILAEGVNPILGEQLGMVKPKVSADAMAVGAKELIELPESVIKDRFNLKDDEGAAWLFAGSPSNGLMGGGFIYTNRNSISLGIVCGLHGIGESDKSVPQMLEDFKNHSLIKPLIEGGKLLEYSGHVVPEAGLNMVPKLVDHGVLITGDAAGFCLNVGYTVRGMDLAIASGEAAAKAVLAARAQQDFSAQGLSSYQSLLEESFLMKDMKLYKQLPAFMETPRIFNQYPKMVADIMHEMFIIDGTPAQPLRKTLLKHCKEVGFMNLIKDGYKGVTSI, MGSDKIHHHHHHMSENIRALSRGLNVLEFLSETGGATRQATVAHFGLSRPTIYRLLGTLEKSGLISLGDDGVYRPTIATRALKEGLTDDVWALWAAEPILLELQKEVVWTSEITTFDAYSCTMLKRDTTHSLNPYHINLLDFDDNHRSMLTSACGLAYLAFCPQQQRAQILEHLGHFGDRTQSDSQRPDSQRGAGAHTRNLINKVISDGYAVEQRNSYPLIAAIAVPIRYDNRVLACLSIVWLPRAVKLQDGITQFLPALKRAQSFIEQKLLDDASIEYDTNFTAKYVHHGQQHELI, MGSDKIHHHHHHMSERKPIPKSVKKVLRSEVGFGCPVKGCGNPYLEYHHFDPPVSVKPHNEPEGMIALCAQHHKKADGGAYTIEQLHALKKDKANAKLVRGNLDWLRKDLLAVVGGNFYYETPRIITIDNIDLVSLVRDEDGYLRLNVNMLSLEPDERIIIEENSWENIGSPLDLRSPPQGKELEISYHNGDYLYLRFIELQSFEQAQQRYETDVFKDITFPITAVEVNMTIAGTRIELTPISSQLGGIKMTGCLSSHCGGGVVIQNSGIQWKQNPVWKRKTLVEETEHPNVVKVNFGRR, MGSDKIHHHHHHMSERPTLHVVSLSGGKDSTATLCVALEQHGSENVRAVMADTGNEDEQNLEYALDYLPRALGIPVDVVRADFTDEFATKRANLARIAAGEPESAVYGKREFMYRWTPEAAARALEVLHPTGIPFLDLCLVRGGFPSRKRQFCTQYLKTEQLVGYALREIDRGYAVWSWQGVRIDESDSRRERLQGTGACVKAFEVVGGGLFNYRPILRWSAADVFEAHAAAGIRPNPLYRQGMSRVGCMPCINAGKLELREIARRFPEHVERIAEWERLVSEVCRPGSPVSFFHQGTTGHTGQASTIWKVVDWSKTSRGGRQYDLLADAEPATACSSAYGLCE, MGSDKIHHHHHHMSFTTWTPPAVASERQPFALTLWRAVEAQHVVSTMPLVDSLDEQAVLEAVLDAGKPAVPAEARHLHYLLFTPFRYPPSPWGSRFRAGQDPGVFYGAEEIRTACAELGYWRWRFLNDSPALPRIDARAQTLFQVSVRTEGVALDTPPFDRDSAQWTDPDSHEACQAFGRIAREAGIGLIRYTSVRDPGHGPCGAVMTPRAFDHPLPLATTTWMLTVRRDRVIWQRDDLQQRDSFEFAASLWQRTSERSPEG, MGSDKIHHHHHHMSHLLKPKPNLLLIDDDEDVLDACRQLFNLSGYQVRATNSPQKALEALSRDWDGVVISDIYMPAMHGLDLLAAVHHIDPQIPVIMITGHADIPLAVKAVKQGAADFIEKPLDPPTFLALVKKAATQRHQLIGQRQNIQDSLAGQLLGSSAQINDLREQLGQLALTDRDVMLEGPRGVGRNTLAALLHKLGPRAEGPLQQLECALVESPEKLQQAVDASRGGTLILRELEHLPTDSQRWLASFLLDQERRGNKEVRTIAILESQPETLVQEQTLTPECFYYFSQVRLRLPALCERPSDIVPLFMAFLKESCRRLSRKMPTVENRYLDNLKQHSWPGNVRELRNVAELYAVGIVKLANVQRIAAAPSVKGPLDELVDDYEKRLIEDALFLFSGRVSEAADYLNVPRKKLYLRMKKYGLDKECFKPVKPGRG, MGSDKIHHHHHHMSHNIKYRQLKAFRILAESGSFKHAADSLAVTQPSMSIMIRELESDLGVALIDRATRSAELTDAGRDFYQQIKGSLDQLEKAYSYANAAGKAEHGRVRIATLTSLAAEAVTTAIARMHAERPGIQIELMERTYFLALRRREVDLGVGILHEAHADLDFQYLFSDQLVVVTPKGHPLARQRQPLKHLGKYDVVVVSPGPSLEALQELDADCAPPVQVEQPSTAITMVRKGLGVTVTSSSATTGLDMRGLAAVPIPGTTRDVGVITLAQARLSPVASAFLRCLRHVHPAG, MGSDKIHHHHHHMSHSLTSVFQKIDSLKPQFFSRLTKAIQIPAVSSDESLRSKVFDKAKFISEQLSQSGFHDIKMVDLGIQPPPISTPNLSLPPVILSRFGSDPSKKTVLVYGHYDVQPAQLEDGWDTEPFKLVIDEAKGIMKGRGVTDDTGPLLSWINVVDAFKASGQEFPVNLVTCFEGMEESGSLKLDELIKKEANGYFKGVDAVCISDNYWLGTKKPVLTYGLRGCNYYQTIIEGPSADLHSGIFGGVVAEPMIDLMQVLGSLVDSKGKILIDGIDEMVAPLTEKEKALYKDIEFSVEELNAATGSKTSLYDKKEDILMHRWRYPSLSIHGVEGAFSAQGAKTVIPAKVFGKFSIRTVPDMDSEKLTSLVQKHCDAKFKSLNSPNKCRTELIHDGAYWVSDPFNAQFTAAKKATKLVYGVDPDFTREGGSIPITLTFQDALNTSVLLLPMGRGDDGAHSINEKLDISNFVGGMKTMAAYLQYYSESPEN, MGSDKIHHHHHHMSHTLYEASVIRVQRCELAVPGSNPGMFEKALKSGVDFVFLDLEDAVAPDDKLTARKNVIEALNDLDWRGHGVTVSVRINGLDTQFMVRDVVDVVEKAGHKLDTILIPKVGVYSDVYMVEAMLNQLEMQQGLKNRIGIEALIETALGMANVEDIARHGVRGRLEALHFGVADYAASNRARTTNIGGLNPDYPGDQWHAAISRMTVACRAYGLRPIDGPFGDIQDPEGYKAAARRAAALGCEGKWAIHPSQIDLANEVFTPPPSEVEKAQRILAALQEAAAQGKGAAALDGRLIDAASARMANNVVKMAEAIGATAT, MGSDKIHHHHHHMSHWFFIINPTAGHRNGLRVWKSIQKELIKRKVEHRSFLTEHPGHAEVLARQISTIQEYKLKRLIVIGGDGTMHEVVNGLKDVDDIELSFVPAGAYNDFSRGFSIKKIDLIQEIKKVKRPLTRTFHLGSVNFLQDKSQILYFMNHIGIGFDAYVNKKAMEFPLRRVFLFLRLRFLVYPLSHLHASATFKPFTLACTTEDETREFHDVWFAVVSNHPFYGGGMKAAPLANPREKTFDIVIVENQPFLKKYWLLCLMAFGKHTKMDGVTMFKAKDITFYTKDKIPFHADGEIMGTTPFRLASSPSPLRIKT
